One molecule from publication PMC3675491 (Nucleic Acids Research, 2013) can be followed below.

For data set [1], the target named is T1, His6-σ^HrdB σ2 fragment (amino acids 211–347) (S. coelicolor, UniProt P18183 211-347).
T1 sequence: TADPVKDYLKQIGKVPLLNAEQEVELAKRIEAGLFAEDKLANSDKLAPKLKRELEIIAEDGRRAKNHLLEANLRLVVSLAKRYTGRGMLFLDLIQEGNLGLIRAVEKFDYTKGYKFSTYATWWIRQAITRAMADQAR
Put plainly: […].

For data set [2], the target named is T2, His6-σ^HrdB σ2–σ4 fragment (amino acids 211–511) (S. coelicolor, UniProt P18183 211-511).
T2 sequence: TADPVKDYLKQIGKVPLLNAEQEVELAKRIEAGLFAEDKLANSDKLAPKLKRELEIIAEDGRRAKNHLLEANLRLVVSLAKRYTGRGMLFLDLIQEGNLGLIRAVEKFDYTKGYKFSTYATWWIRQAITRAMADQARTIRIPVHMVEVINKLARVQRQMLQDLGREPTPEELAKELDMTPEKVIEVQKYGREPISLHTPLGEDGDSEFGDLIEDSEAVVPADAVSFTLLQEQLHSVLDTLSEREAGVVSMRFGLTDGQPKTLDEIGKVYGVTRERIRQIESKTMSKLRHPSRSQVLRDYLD
As to the kind of experiment: […].

The data set “SEC” deals with the molecule itself. Put plainly: SEC.
The target in data set [3] is T3, σ^HrdB (purified protein, 55.9 kDa) (S. coelicolor, UniProt P18183 1-511).
T3 sequence: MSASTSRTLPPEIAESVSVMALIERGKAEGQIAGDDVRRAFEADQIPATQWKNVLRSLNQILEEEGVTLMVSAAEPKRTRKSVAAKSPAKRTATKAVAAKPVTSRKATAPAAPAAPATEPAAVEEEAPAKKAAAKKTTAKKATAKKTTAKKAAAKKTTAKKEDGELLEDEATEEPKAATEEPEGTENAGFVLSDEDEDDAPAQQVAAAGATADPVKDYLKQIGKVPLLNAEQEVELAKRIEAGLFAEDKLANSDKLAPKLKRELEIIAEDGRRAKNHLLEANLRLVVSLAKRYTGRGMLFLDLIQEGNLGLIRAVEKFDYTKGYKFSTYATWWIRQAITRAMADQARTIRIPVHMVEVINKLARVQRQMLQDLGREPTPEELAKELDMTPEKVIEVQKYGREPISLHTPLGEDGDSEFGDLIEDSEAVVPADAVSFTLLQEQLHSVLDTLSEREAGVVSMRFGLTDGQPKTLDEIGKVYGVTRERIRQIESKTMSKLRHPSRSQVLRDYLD
As to the kind of experiment: SEC. A general note: In gel filtration, larger molecules generally elute earlier.

B1: RbpA^Sc (native, untagged purified protein, 14.1 kDa) (natural protein)
chain: MSERALRGTRLVVTSYETDRGIDLAPRQAVEYACEKGHRFEMPFSVEAEIPPEWECKVCGAQALLVDGDGPEEKKAKPARTHWDMLMERRTREELEEVLEERLAVLRSGAMNIAVHPRDSRKSA
Regarding B1, the binding result in data set [1], in data set [2] and in data set [3] was “binds” throughout. In “SEC”, the “stoichiometry N” value was 2.

The term stoichiometry N denotes a count of units in the complex or per binding partner.
